Laboratory results taken from patent US20250263440A1, “CD38-BINDING AGENTS AND USES THEREOF” (PeptiDream Inc., priority 2019, published 2025).
Like-named read-outs stand apart in the source and are kept apart here. Starred links: 1 amine or outer side, 2 acyl side, 3 side chain; linkers in the order of their positions; H or OH if unused. Positions of bridges follow the written chain, without caps; N, C: chain ends. Non-standard residues stand in square brackets, D forms with d. Residues, ends and D or L forms follow the SMILES beside them. No end group written: not given here. F3G = 3-guanidinophenylalanine, N=C(N)Nc1cccc(C[C@H](N[*:1])C(=O)[*:2])c1; Bip = N[C@@H](Cc1ccc(-c2ccccc2)cc1)C(=O)O; Nle(6-Ph) = N[C@@H](CCCCc1ccccc1)C(=O)O; Met(O2) = CS(=O)(=O)CC[C@H](N)C(=O)O; NMeF = CN[C@@H](Cc1ccccc1)C(=O)O; Cit = NC(=O)NCCC[C@H](N)C(=O)O; Ahp(2) = CCCCC[C@H](N)C(=O)O

B1: I-1 analogue with Ala at position 3 (A R A Y H D G V L Bph Ahp D C) (peptide)
peptide: {CH2CO}-ARAYHDGVL[Bip][Ahp(2)]DC
modifications: thioether N-13
B2: I-2 analogue with Ala at position 9 (A L H MeF V L P Bph A W V C) (peptide)
peptide: {CH2CO}-ALH[NMeF]VLP[Bip]AWVC
modifications: thioether N-12
B3: I-2 analogue with Ala at position 2 (A A H MeF V L P Bph V W V C) (peptide)
peptide: {CH2CO}-AAH[NMeF]VLP[Bip]VWVC
modifications: thioether N-12
B4: I-2 analogue with Ala at position 4 (A L H A V L P Bph V W V C) (peptide)
peptide: {CH2CO}-ALHAVLP[Bip]VWVC
modifications: thioether N-12
B5: I-2 analogue with Ala at position 10 (A L H MeF V L P Bph V A V C) (peptide)
peptide: {CH2CO}-ALH[NMeF]VLP[Bip]VAVC
modifications: thioether N-12
B6: I-1 analogue with Ala at position 10 (A R Ahp Y H D G V L A Ahp D C) (peptide)
peptide: {CH2CO}-AR[Ahp(2)]YHDGVLA[Ahp(2)]DC
modifications: thioether N-13
B7: I-2 analogue with Ala at position 5 (A L H MeF A L P Bph V W V C) (peptide)
peptide: {CH2CO}-ALH[NMeF]ALP[Bip]VWVC
modifications: thioether N-12
B8: I-2 analogue with Ala at position 6 (A L H MeF V A P Bph V W V C) (peptide)
peptide: {CH2CO}-ALH[NMeF]VAP[Bip]VWVC
modifications: thioether N-12
B9: I-1 analogue with Ala at position 11 (A R Ahp Y H D G V L Bph A D C) (peptide)
peptide: {CH2CO}-AR[Ahp(2)]YHDGVL[Bip]ADC
modifications: thioether N-13
B10: I-2 analogue with Ala at position 11 (A L H MeF V L P Bph V W A C) (peptide)
peptide: {CH2CO}-ALH[NMeF]VLP[Bip]VWAC
modifications: thioether N-12
B11: I-2 analogue with Ala at position 3 (A L A MeF V L P Bph V W V C) (peptide)
peptide: {CH2CO}-ALA[NMeF]VLP[Bip]VWVC
modifications: thioether N-12
B12: I-2 analogue with Ala at position 7 (A L H MeF V L A Bph V W V C) (peptide)
peptide: {CH2CO}-ALH[NMeF]VLA[Bip]VWVC
modifications: thioether N-12
B13: Circular peptide having amino acid sequence represented by SEQ ID NO.29 (peptide)
peptide: {CH2CO}-A[F3G][Ahp(2)]YHDEVL[Bip][Ahp(2)]DC
modifications: thioether N-13; not fully specified; also: circular peptide, closure not given here
B14: I-1 analogue with Ala at position 2 (A A Ahp Y H D G V L Bph Ahp D C) (peptide)
peptide: {CH2CO}-AA[Ahp(2)]YHDGVL[Bip][Ahp(2)]DC
modifications: thioether N-13
B15: I-1 analogue with Ala at position 12 (A R Ahp Y H D G V L Bph Ahp A C) (peptide)
peptide: {CH2CO}-AR[Ahp(2)]YHDGVL[Bip][Ahp(2)]AC
modifications: thioether N-13
B16: I-1 analogue with Ala at position 5 (A R Ahp Y A D G V L Bpb Ahp D C) (peptide)
peptide: {CH2CO}-AR[Ahp(2)]YADGVL[Bip][Ahp(2)]DC
modifications: thioether N-13
B17: I-1 analogue with Ala at position 7 (A R Ahp Y H D A V L Bpb Ahp D C) (peptide)
peptide: {CH2CO}-AR[Ahp(2)]YHDAVL[Bip][Ahp(2)]DC
modifications: thioether N-13
B18: I-1 analogue with Ala at position 8 (A R Ahp Y H D G A L Bph Ahp D C) (peptide)
peptide: {CH2CO}-AR[Ahp(2)]YHDGAL[Bip][Ahp(2)]DC
modifications: thioether N-13
B19: I-1 analogue with Ala at position 9 (A R Ahp Y H D G V A Bph Ahp D C) (peptide)
peptide: {CH2CO}-AR[Ahp(2)]YHDGVA[Bip][Ahp(2)]DC
modifications: thioether N-13
B20: I-1 analogue with Ala at position 4 (A R Ahp A H D G V L Bph Ahp D C) (peptide)
peptide: {CH2CO}-AR[Ahp(2)]AHDGVL[Bip][Ahp(2)]DC
modifications: thioether N-13
B21: I-1 analogue with Ala at position 6 (A R Ahp Y H A G V L Bph Ahp D C) (peptide)
peptide: {CH2CO}-AR[Ahp(2)]YHAGVL[Bip][Ahp(2)]DC
modifications: thioether N-13
B22: I-2 analogue with Ala at position 8 (A L H MeF V L P A V W V C) (peptide)
peptide: {CH2CO}-ALH[NMeF]VLPAVWVC
modifications: thioether N-12; also: structure as I-2

Tests used:
His-tagged CD38 [1] = target: His-tagged CD38 (Homo sapiens, UniProt P28907); assay: SPR assay (Biacore S200, Sensor Chip NTA, single-cycle kinetics) of SEQ ID NO.1 variants against His-tagged CD38; type: binding; conditions: for kon / koff: SPR Biacore S200, NTA chip, His-tagged CD38; for kon: read-out: Ka (association rate constant); for koff: read-out: Kd (dissociation rate constant)
Description: SPR assay was performed using Biacore S200 (Cytiva: Former GE Healthcare).
After the equilibration of Series S Sensor Chip NTA (produced by Cytiva: Former GE Healthcare) with Running Buffer (10 mM HEPES pH7.4, 150 mM NaCl, 0.05% Tween 20), followed by injection of 350 mM EDTA at a flow rate of 10 L/min for 60 seconds and […] NiCl2 at a flow rate of 10 L/min for 60 seconds, then 3 mM EDTA at a flow rate of 10 L/min for 120 seconds, sequently, to wash the sensor chip.
(§1) EDC/NHS mixture was injected at a flow rate of […] for 7 minutes to thereby activate the functional groups on sensor chip. His-tagged CD38 in Running Buffer (10 mM HEPES pH7.4, 150 mM NaCl, 0.05% Tween 20) was injected immobilized to at a flow rate of […]. For 7 minutes to immobilize the CD38 on the substrate surfaces of the sensor chip. Then Ethanolamine was injected at a flow rate of […] for 7 minutes.
(§2) 1.0 M Ethanolamine(aq.) was injected at a flow rate of 10 L/min for 420 seconds for capping. 10 mM peptides (which were synthesised described above) in DMSO were diluted to obtain 10 uM with Running Buffer, and prepared 100 nM, 50 nM, 25 nM, 10 nM, 5 nM of each peptide's solutions (Peptide Samples).
(§3) Using these Peptide Samples, kinetics of peptides against His-tagged CD38 was measured. The method adopted for sample measurement was a single-cycle kinetics method. The analysis was conducted using the evaluation software 1.1 provided with Biacore S200. A DMSO correction curve obtained by solvent correction measurements was applied for the analysis. Kinetics fitting was done on the difference data obtained by subtracting the baseline data from sample measurement data.
KD values were calculated based on the association rate constant (ka) and dissociation rate constant (kd).

[2] = target: T1, Recombinant human CD38 protein (R&D Systems) (human, UniProt P28907 43-300); assay: ELISA
[3] = target: T1, Recombinant human CD38 protein (R&D …); assay: ELISA; remark: listed apart in the source
His-tagged CD38 [4] = target: T2, His-tagged CD38 (human, UniProt P28907 43-300, limits assumed); assay: SPR (Biacore S200), His-tagged CD38 immobilised, single-cycle kinetics
T2 construct: The order of CD38 and tag is not known; not shown: His tag
Description: as §1, §2, §3

Molecule	Binding Assay (larger values indicate stronger binding) [2]	Binding Assay (larger values indicate stronger binding) [3]	also measured
CCCCC[C@@H]1NC(=O)[C@H](CCCNC(=N)N)NC(=O)[C@H](C)NC(=O)CSC[C@@H](C(N)=O)NC(=O)[C@H](CC(=O)O)NC(=O)[C@H](CCCCC)NC(=O)[C@H](Cc2ccc(-c3ccccc3)cc2)NC(=O)[C@H](CCS(C)(=O)=O)NC(=O)[C@H](C(C)C)NC(=O)[C@H](CCC(N)=O)NC(=O)[C@H](CC(=O)O)NC(=O)[C@H](Cc2c[nH]cn2)NC(=O)[C@H](Cc2ccc(O)cc2)NC1=O [compound 13] ({CH2CO}-AR[Ahp(2)]YHDQV[Met(O2)][Bip][Ahp(2)]DC-NH2; thioether N-13)	–	–	kon (His-tagged CD38 [1]): 1.1e+06 M⁻¹ s⁻¹; koff (His-tagged CD38 [1]): 0.024 s⁻¹
CCCCC[C@@H]1NC(=O)[C@H](CCCNC(=N)N)NC(=O)[C@H](C)NC(=O)CSC[C@@H](C(N)=O)NC(=O)[C@H](CC(=O)O)NC(=O)[C@H](CCCCc2ccccc2)NC(=O)[C@H](Cc2ccc(-c3ccccc3)cc2)NC(=O)[C@H](CC(C)C)NC(=O)[C@H](C(C)C)NC(=O)[C@H](CCC(=O)O)NC(=O)[C@H](CC(=O)O)NC(=O)[C@H](Cc2c[nH]cn2)NC(=O)[C@H](Cc2ccc(O)cc2)NC1=O [compound 25] ({CH2CO}-AR[Ahp(2)]YHDEVL[Bip][Nle(6-Ph)]DC-NH2; thioether N-13)	–	–	kon (His-tagged CD38 [1]): 630000 M⁻¹ s⁻¹; koff (His-tagged CD38 [1]): 0.00087 s⁻¹
CCCCC[C@@H]1NC(=O)[C@H](CCCNC(N)=O)NC(=O)[C@H](C)NC(=O)CSC[C@@H](C(N)=O)NC(=O)[C@H](CC(=O)O)NC(=O)[C@H](CCCCc2ccccc2)NC(=O)[C@H](Cc2ccc(-c3ccccc3)cc2)NC(=O)[C@H](CC(C)C)NC(=O)[C@H](C(C)C)NC(=O)[C@H](CCC(=O)O)NC(=O)[C@H](CC(=O)O)NC(=O)[C@H](Cc2c[nH]cn2)NC(=O)[C@H](Cc2ccc(O)cc2)NC1=O [compound 28] ({CH2CO}-A[Cit][Ahp(2)]YHDEVL[Bip][Nle(6-Ph)]DC-NH2; thioether N-13)	–	–	Kd (His-tagged CD38 [1]; SPR Biacore S200, His-tagged CD38, calculated from ka and kd): 2.4 nM; kon (His-tagged CD38 [1]): 680000 M⁻¹ s⁻¹; koff (His-tagged CD38 [1]): 0.0016 s⁻¹
CCCCC[C@@H]1NC(=O)[C@H](CCCNC(=N)N)NC(=O)[C@H](C)NC(=O)CSC[C@@H](C(N)=O)NC(=O)[C@H](CC(=O)O)NC(=O)[C@H](CCCCC)NC(=O)[C@H](Cc2ccc(-c3ccccc3)cc2)NC(=O)[C@H](CCS(C)(=O)=O)NC(=O)[C@H](C(C)C)NC(=O)[C@H](CCC(=O)O)NC(=O)[C@H](CC(=O)O)NC(=O)[C@H](Cc2c[nH]cn2)NC(=O)[C@H](Cc2ccc(O)cc2)NC1=O [compound 14] ({CH2CO}-AR[Ahp(2)]YHDEV[Met(O2)][Bip][Ahp(2)]DC-NH2; thioether N-13 (inferred); N-terminus and C-terminus assumed)	–	–	kon (His-tagged CD38 [1]): 570000 M⁻¹ s⁻¹; koff (His-tagged CD38 [1]): 0.022 s⁻¹
CCCCC[C@@H]1NC(=O)[C@H](Cc2ccc(-c3ccccc3)cc2)NC(=O)[C@H](CC(C)C)NC(=O)[C@H](C(C)C)NC(=O)[C@H](CCC(=O)O)NC(=O)[C@H](CC(=O)O)NC(=O)[C@H](Cc2c[nH]cn2)NC(=O)[C@H](Cc2ccc(O)cc2)NC(=O)[C@H](CCCCC)NC(=O)[C@H](CCCNC(=N)N)NC(=O)[C@H](C)NC(=O)CSC[C@@H](C(N)=O)NC(=O)[C@H](C)NC1=O [compound 27] ({CH2CO}-AR[Ahp(2)]YHDEVL[Bip][Ahp(2)]AC-NH2; thioether N-13 (inferred); N-terminus and C-terminus assumed)	–	–	kon (His-tagged CD38 [1]): 560000 M⁻¹ s⁻¹; koff (His-tagged CD38 [1]): 0.0028 s⁻¹
B1	0.11	–	–
B2	–	0.12	–
B3	–	0.84	–
B4	–	0.1	–
B5	–	0.1	–
B6	0.09	–	–
B7	–	0.47	–
B8	–	0.09	–
B9	0.2	–	–
B10	–	0.41	–
B11	–	0.37	–
B12	–	0.11	–
B13	–	–	Kd (His-tagged CD38 [4]): 2 nM
B14	0.6	–	–
B15	1.79	–	–
B16	0.28	–	–
B17	1.49	–	–
B18	0.3	–	–
B19	0.08	–	–
B20	0.11	–	–
B21	0.93	–	–
B22	–	0.09	–
